Assay results from US9457043B2, “Combination therapy using c-Met inhibitor and c-Myc inhibitor” (Samsung Electronics Co., Ltd., priority 2013, dated 2016).

B1: scFv of huAbF46: VH-linker-VL single-chain Fv of huAbF46 with linker SEQ ID NO: 54 (protein)
scFv: EVQLVESGGGLVQPGGSLRLSCAASGFTFTDYYMSWVRQAPGKGLEWLGFIRNKANGYTTEYSASVKGRFTISRDNSKNTLYLQMNSLRAEDTAVYYCARDNWFAYWGQGTLVTVSSGLGGLGGGGSGGGGSGGSSGVGSDIQMTQSPSSLSASVGDRVTITCKSSQSLLASGNQNNYLAWHQQKPGKAPKMLIIWASTRVSGVPSRFSGSGSGTDFTLTISSLQPEDFATYYCQQSYSAPLTFGQGTKVEIKR
B2: L3-1Y/IgG2: anti-c-Met antibody: huAbF46-H4-A1 heavy chain variable region, human IgG2 hinge and constant region, kappa light chain with tyrosine at position 36 (antibody)
heavy: EVQLVESGGGLVQPGGSLRLSCAASGFTFTDYYMSWVRQAPGKGLEWLGFIRNKANGYTTEYSASVKGRFTISRDNSKNTLYLQMNSLRAEDTAVYYCARDNWFAYWGQGTLVTVSSASTKGPSVFPLAPCSRSTSESTAALGCLVKDYFPEPVTVSWNSGALTSGVHTFPAVLQSSGLYSLSSVVTVPSSNFGTQTYTCNVDHKPSNTKVDKTVERKCCVECPPCPAPPVAGPSVFLFPPKPKDTLMISRTPEVTCVVVDVSHEDPEVQFNWYVDGVEVHNAKTKPREEQFNSTFRVVSVLTVVHQDWLNGKEYKCKVSNKGLPAPIEKTISKTKGQPREPQVYTLPPSREEMTKNQVSLTCLVKGFYPSDIAVEWESNGQPENNYKTTPPMLDSDGSFFLYSKLTVDKSRWQQGNVFSCSVMHEALHNHYTQKSLSLSPGK
light: DIQMTQSPSSLSASVGDRVTITCKSSQSLLASGNQNNYLAWYQQKPGKAPKMLIIWASTRVSGVPSRFSGSGSGTDFTLTISSLQPEDFATYYCQQSYSRPYTFGQGTKVEIKRTVAAPSVFIFPPSDEQLKSGTASVVCLLNNFYPREAKVQWKVDNALQSGNSQESVTEQDSKDSTYSLSSTLTLSKADYEKHKVYACEVTHQGLSSPVTKSFNRGEC

Assays:
c-Met = c-Met (Homo sapiens, UniProt P08581); test: Specificity of expressed scFv to c-Met; assay type: binding; details: scFv product after expression
From the text: For use in constructing an scFv of the huAbF46 antibody from the heavy and light chain variable regions of the huAbF46 antibody, a gene was designed to have the structure of “VH-linker-VL” for each of the heavy and the light chain variable region, with the linker including the amino acid sequence “[…]” (SEQ ID NO: 54). A polynucleotide sequence (SEQ ID NO: 55) coding for the designed scFv of huAbF46 was synthesized in Bioneer and an expression vector for the polynucleotide had the nucleotide sequence of SEQ ID NO: 56.

HCC1954 cells = test: Cell proliferation (CellTiter Glo) in HCC1954 breast cancer cells; assay type: cell-based; details: L3-1Y/IgG2 0-2 μg/ml, 72 hours after antibody treatment, siRNA reverse transfected 24 hours before, FIG. 1
From the text: (§1) To confirm the effect of co-administration in a breast cancer cell on which an anti-c-Met antibody has no effect when administered alone, HCC1954 (ATCC, CRL 2338) cells were used for assaying the effect of co-administration on cell proliferation.
In particular, a mixture of c-Myc siRNAs (sic-Myc; mixture of siRNA pools wherein 5′-[…]-3′ (SEQ ID NO: 119), 5′-[…]-3′ (SEQ ID NO: 120), 5′-[…]-3′ (SEQ ID NO: 121), and 5′-[…]-3′ (SEQ ID NO: 122) are mixed at the molar ratio of 1:1:1:1) was reverse transfected to HCC1954 cells and the transfected cells were incubated in 96-well plate at the amount of 5000 cells/well (medium: 10% FBS in RPMI 1640 (GIBCO), incubation temperature: 37° C.). The reverse transfection was conducted using lipofectamine RNAi max (invitrogen). The reverse transfection was conducted by pre-incubating 10˜20 uM of siRNA diluted in opti-MEM (Gibco) and lipofectamine RNAi max diluted in opti-MEM (Gibco) at room temperature for 15 minutes, and then mixing with 5000 cells/well of the incubated cells, to allow reverse transfection. 24 hours after, the prepared cells were treated with L3-1Y/IgG2. […] The number of the cells was counted through luminescence signal, and the luminescence signal was recorded using Envision 2104 Multi-label Reader (Perkin Elmer). […]

HT-29 cells = test: Cell proliferation (CellTiter Glo) in HT-29 colon cancer cells; assay type: cell-based; details: L3-1Y/IgG2 0-2 μg/ml, 72 hours, FIG. 2
From the text: as §1, with “colon” for “breast”, “HT-29” for “HCC1954”, “HTB-38), Ls174T (ATCC, CCL-188), SW620 (ATCC, CCL-227), and LoVo (ATCC, CCL-229)” for “CRL 2338)”
(§2) In particular, a mixture of c-Myc siRNAs (sic-Myc; mixture of siRNA pools wherein 5′-[…]-3′ (SEQ ID NO: 119), 5′-[…]-3′ (SEQ ID NO: 120), 5′-[…]-3′ (SEQ ID NO: 121), and 5′-[…]-3′ (SEQ ID NO: 122) are mixed at the molar ratio of 1:1:1:1) was reverse transfected to each of HT-29, Ls174T, SW620, and LoVo cells and each transfected cells were incubated in 96-well plate at the amount of 5000 cells/well (medium: 10% FBS in RPMI 1640 (GIBCO), incubation temperature: 37° C.). The reverse transfection was conducted using lipofectamine RNAi max (invitrogen). The reverse transfection was conducted by pre-incubating 10˜20 uM of siRNA diluted in opti-MEM (Gibco) and lipofectamine RNAi max diluted in opti-MEM (Gibco) at room temperature for 15 minutes, and then mixing with 5000 cells/well of the incubated cells, to allow reverse transfection. 24 hours after, the prepared cells were treated with L3-1Y/IgG2. […] The number of the cells was counted through luminescence signal, and the luminescence signal was recorded using Envision 2104 Multi-label Reader (Perkin Elmer). […]

Ls174T cells = test: Cell proliferation (CellTiter Glo) in Ls174T colon cancer cells; assay type: cell-based; details: L3-1Y/IgG2 0-2 μg/ml, 72 hours, FIG. 3
From the text: as §1, with “colon” for “breast”, “HT-29” for “HCC1954”, “HTB-38), Ls174T (ATCC, CCL-188), SW620 (ATCC, CCL-227), and LoVo (ATCC, CCL-229)” for “CRL 2338)”
as §2

SW620 cells = test: Cell proliferation (CellTiter Glo) in SW620 colon cancer cells; assay type: cell-based; details: L3-1Y/IgG2 0-2 μg/ml, 72 hours, FIG. 4
From the text: as §1, with “colon” for “breast”, “HT-29” for “HCC1954”, “HTB-38), Ls174T (ATCC, CCL-188), SW620 (ATCC, CCL-227), and LoVo (ATCC, CCL-229)” for “CRL 2338)”
as §2

LoVo cells = test: Cell proliferation (CellTiter Glo) in LoVo colon cancer cells; assay type: cell-based; details: L3-1Y/IgG2 0-2 μg/ml, 72 hours, FIG. 5
From the text: as §1, with “colon” for “breast”, “HT-29” for “HCC1954”, “HTB-38), Ls174T (ATCC, CCL-188), SW620 (ATCC, CCL-227), and LoVo (ATCC, CCL-229)” for “CRL 2338)”
as §2

c-Myc = c-Myc expression level by western blotting in HT-29 cells; assay type: cell-based; details: 1 μg/ml L3-1Y/IgG2 for 24 hours, western blot, beta-actin control, FIG. 7
Protocol: To reveal the causes of acquirement of effect by co-treatment of an anti-c-Met antibody and c-Myc siRNA on colon cancer cell on which the antibody solely has no effect, the expression level of c-Myc in HT29 (ATCC, HTB-38) treated with an anti-c-Met antibody was measured.
In particular, 20000 cells of HT-29 cell was incubated in 60 mm plate (medium: 10% FBS in RPMI 1640 (GIBCO), incubation temperature: 37° C.). 24 hours after, 1 μg/ml of L3-1Y/IgG2 was treated thereto. 24 hours after, the cells were lysed using Lysis buffer (Roche), thereby obtaining proteins. The concentration of the obtained proteins was measured, and 20 ug of each protein was loaded and subjected to western blotting. The expression amount of c-Myc was detected using c-Myc antibody (Santa-Cruz). A group which is not treated with L3-1Y/IgG2 was used as a control, and the expression amount of beta-actin was used as a control of expression amount of proteins.

Chain of c-Met (P08581 25-1390): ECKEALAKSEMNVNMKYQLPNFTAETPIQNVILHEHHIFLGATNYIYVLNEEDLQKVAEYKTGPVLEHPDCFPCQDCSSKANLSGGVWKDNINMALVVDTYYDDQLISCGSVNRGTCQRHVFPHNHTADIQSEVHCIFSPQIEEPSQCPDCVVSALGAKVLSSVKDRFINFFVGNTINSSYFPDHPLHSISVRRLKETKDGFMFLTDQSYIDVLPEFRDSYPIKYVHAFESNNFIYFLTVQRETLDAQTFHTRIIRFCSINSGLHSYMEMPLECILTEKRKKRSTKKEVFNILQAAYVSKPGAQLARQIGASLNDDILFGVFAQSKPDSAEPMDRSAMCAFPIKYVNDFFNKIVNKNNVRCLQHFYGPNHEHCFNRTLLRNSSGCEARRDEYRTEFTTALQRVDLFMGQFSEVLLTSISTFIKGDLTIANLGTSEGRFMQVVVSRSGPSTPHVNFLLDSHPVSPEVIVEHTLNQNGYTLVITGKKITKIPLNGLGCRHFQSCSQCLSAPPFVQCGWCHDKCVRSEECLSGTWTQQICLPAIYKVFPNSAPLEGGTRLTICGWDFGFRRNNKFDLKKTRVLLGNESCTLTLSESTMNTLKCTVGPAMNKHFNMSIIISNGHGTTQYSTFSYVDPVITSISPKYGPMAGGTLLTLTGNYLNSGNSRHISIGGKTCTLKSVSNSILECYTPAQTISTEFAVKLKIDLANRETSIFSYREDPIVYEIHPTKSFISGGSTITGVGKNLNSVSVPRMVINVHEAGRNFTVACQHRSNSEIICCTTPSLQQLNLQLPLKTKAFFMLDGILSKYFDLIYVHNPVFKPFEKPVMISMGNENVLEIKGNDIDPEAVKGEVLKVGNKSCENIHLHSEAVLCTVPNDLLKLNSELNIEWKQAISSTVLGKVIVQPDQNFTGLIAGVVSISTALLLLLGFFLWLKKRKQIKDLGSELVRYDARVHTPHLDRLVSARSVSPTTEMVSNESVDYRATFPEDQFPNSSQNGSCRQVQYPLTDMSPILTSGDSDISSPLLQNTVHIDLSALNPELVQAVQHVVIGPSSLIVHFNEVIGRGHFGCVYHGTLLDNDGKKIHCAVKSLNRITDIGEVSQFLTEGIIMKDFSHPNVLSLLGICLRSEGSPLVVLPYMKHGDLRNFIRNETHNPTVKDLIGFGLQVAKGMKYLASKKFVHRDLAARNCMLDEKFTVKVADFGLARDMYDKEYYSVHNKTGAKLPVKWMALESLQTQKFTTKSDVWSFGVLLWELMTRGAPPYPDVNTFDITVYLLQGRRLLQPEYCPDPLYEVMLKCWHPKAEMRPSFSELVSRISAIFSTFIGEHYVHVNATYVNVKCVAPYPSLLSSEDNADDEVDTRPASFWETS

Molecule | specificity to c-Met (c-Met) | cell proliferation inhibition effect (HCC1954 cells) | cell proliferation inhibition effect (HT-29 cells) | cell proliferation inhibition effect (Ls174T cells) | cell proliferation inhibition effect (SW620 cells) | cell proliferation inhibition effect (LoVo cells) | amount of c-Myc (expression) (c-Myc)
B1 | exhibit specificity to c-Met |  |  |  |  |  | 
B2 |  | no cell proliferation inhibition effect is observed | no cell proliferation inhibition effect is observed | no cell proliferation inhibition effect is observed | no cell proliferation inhibition effect is observed | no cell proliferation inhibition effect is observed | increased amount of c-Myc
